This is an account of results in US20240228626A1 (IMMUNORIZON, published 2024).

For experiment [1], the target named is cyno-NKG2D/Dap10 over-expressed in CHO cells (cyno) (UniProt P61252). The experiment can be described thus: FACS on CHO cells over expressing cynoNKG2D.
Experiment [2] deals with T1, NKG2D on primary NK cells purified from healthy donor's PBMCs (human, UniProt P26718 1-216).
T1 construct: whole, on cells
T1 sequence (looked up): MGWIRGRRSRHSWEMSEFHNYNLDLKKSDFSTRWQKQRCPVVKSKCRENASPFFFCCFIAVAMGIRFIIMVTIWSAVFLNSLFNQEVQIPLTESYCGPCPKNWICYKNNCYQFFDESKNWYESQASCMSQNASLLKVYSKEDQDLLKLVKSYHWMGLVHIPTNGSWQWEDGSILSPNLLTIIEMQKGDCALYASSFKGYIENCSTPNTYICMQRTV
Nature of the experiment: FACS on primary NK cells, two concentrations.

Experiment [3] addresses recombinant human NKG2D-ECD-Fc (extracellular domain of NKG2D fused to human Fc) (human) (UniProt P26718). The experiment can be described thus: ELISA on coated NKG2D-ECD-Fc.
The target in experiment [4] is T1, NKG2D on primary NK cells purified from …. The experiment can be described thus: FACS on primary NK cells, 100 nM and 10 nM.
Experiment [5] has as its target NKG2D on primary NK cells purified from healthy donor's PBMCs (human) (UniProt P26718). The experiment can be described thus: cell-based or functional assay.
The target of experiment [6] is T1, NKG2D on primary NK cells purified from …. Nature of the experiment: FACS on cells.

Chain of cyno-NKG2D/Dap10 over-expressed in CHO cells (cyno) (P61252 whole entry): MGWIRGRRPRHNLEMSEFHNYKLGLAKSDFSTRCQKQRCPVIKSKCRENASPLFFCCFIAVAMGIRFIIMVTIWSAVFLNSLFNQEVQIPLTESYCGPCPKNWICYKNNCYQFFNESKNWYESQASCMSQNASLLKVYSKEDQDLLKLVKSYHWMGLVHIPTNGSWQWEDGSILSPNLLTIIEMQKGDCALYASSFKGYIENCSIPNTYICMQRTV

B1: IM1250 CD3x5T4x NKG2D-cl-19 (L-H) (protein, part only; not given: anti-CD3 Fab, anti-5T4 scFv, linkers, not shown: another chain or arm of the molecule; small tags and cut ends)
VL: DILLTQSPAILSVSPGERVSFSCRASQSIGTSIHWYQQRTNVSPRLLIKYASESISGIPSRFSGSGSGTDFTLSINNVESEDIADYYCQHSNRWPLTFGAGTKLELK
VH: QVQLKESGPGLVAPSQSLSITCTVSGFSLTSYAISWFRQPPGKGLECLGVIWTGGGTNYNSVFKSRLSIIKDNSKSQVFLKMNSLQTDDTARYYCARKGDEGYWGYFDVWGTGTTVTVSS
As a reminder, the EC50 is the concentration at which the effect is half-maximal. The molecule B1 had an EC50 in experiment [1] of 2.3 nM.

B2: mAb019 (antibody, V domains shown)
VH: QVQLKESGPGLVAPSQSLSITCTVSGFSLTSYAISWFRQPPGKGLECLGVIWTGGGTNYNSVFKSRLSIIKDNSKSQVFLKMNSLQTDDTARYYCARKGDEGYWGYFDVWGTGTTVTVSS
VL: DILLTQSPAILSVSPGERVSFSCRASQSIGTSIHWYQQRTNVSPRLLIKYASESISGIPSRFSGSGSGTDFTLSINNVESEDIADYYCQHSNRWPLTFGAGTKLELK
notes: Mouse hybridoma mAb, protein A purified; also called IM, NKG2D mouse hybridoma cl- 19; NKG2D-cl-19
On to B2, for which the binding result in experiment [2] is on record as “binds”.

B3: IM1244 CD3x5T4x NKG2D-cl-1 (L-H) (protein, part only; not given: anti-CD3 Fab, anti-5T4 scFv, linkers, not shown: another chain or arm of the molecule; small tags and cut ends)
VL: DIVLTQSPASLAVSLGQRAIISCKASQSVSFAGSNLMHWYQQKPGQQPKLLIYRASNLEVGVPTRFSGSGSGTDFTLNIHPVDEDDAATYYCQQSREYPFTFGSGTKLEIK
VH: EVQLQQSGPELVKPGASVKISCKASAFNFTSYYLHWVKQGPGQGLEWIGWIYPGSGDTKYNEKFKGKATLTADTSSSAANMKLSSLTSEDSAVYYCARNRIFDSYYVDSMDYWGQGTSVTVSS
As to B3, the EC50 in experiment [3] is 2.6 nM; in experiment [1] it was 21 nM.

B4: IM1245 CD3x5T4x NKG2D-cl-1 (H-L) (protein, part only; not given: anti-CD3 Fab, anti-5T4 scFv, linkers, not shown: another chain or arm of the molecule; small tags and cut ends)
VH: EVQLQQSGPELVKPGASVKISCKASAFNFTSYYLHWVKQGPGQGLEWIGWIYPGSGDTKYNEKFKGKATLTADTSSSAANMKLSSLTSEDSAVYYCARNRIFDSYYVDSMDYWGQGTSVTVSS
VL: DIVLTQSPASLAVSLGQRAIISCKASQSVSFAGSNLMHWYQQKPGQQPKLLIYRASNLEVGVPTRFSGSGSGTDFTLNIHPVDEDDAATYYCQQSREYPFTFGSGTKLEIK
Consider B4, for which the EC50 in experiment [3] worked out at 1.1 nM; in experiment [1], 13 nM.

B5: mAb001 (antibody, V domains shown)
VH: EVQLQQSGPELVKPGASVKISCKASAFNFTSYYLHWVKQGPGQGLEWIGWIYPGSGDTKYNEKFKGKATLTADTSSSAANMKLSSLTSEDSAVYYCARNRIFDSYYVDSMDYWGQGTSVTVSS
VL: DIVLTQSPASLAVSLGQRAIISCKASQSVSFAGSNLMHWYQQKPGQQPKLLIYRASNLEVGVPTRFSGSGSGTDFTLNIHPVDEDDAATYYCQQSREYPFTFGSGTKLEIK
notes: Mouse hybridoma mAb, protein A purified; also called IM, NKG2D mouse hybridoma cl- 1; NKG2D-cl-1
Turning to B5, in experiment [4], the binding result is “binds”.

B6: IM1091 CD3/5T4/NKG2D mut(VL-VH) (protein, part only; not given: anti-CD3 Fab, anti-5T4 scFv, linkers, not shown: another chain or arm of the molecule; small tags and cut ends)
VL: QSALTQPASVSGSPGQSITISCSGSSSNIGNNAVNWYQQLPGKAPKLLIYADDLLPSGVSDRFSGSKSGTSAFLAISGLQSEDEADYYCAAWDDSLNGPVFGGGTKLTVL
VH: QVQLVESGGGLVKPGGSLRLSCAASGFTFSSYGMHWVRQAPGKGLEWVAFIRYDGSNKYYADSVKGRFTISRDNSKNTLYLQMNSLRAEDTAVYYCAKDAGEGDGTYFDYWGQGTTVTVSS
On to B6, for which the activation as measured by CD107a MFI on CD56^+gated NK cells population in experiment [5] was in the range of 35 to 40%.

B7: IM1248 CD3x5T4x NKG2D-cl-10 (L-H) (protein, part only; not given: anti-CD3 Fab, anti-5T4 scFv, linkers, not shown: another chain or arm of the molecule; small tags and cut ends)
VL: DIVLTQSPASLAMSLGKRATISCRASESVSIMGTNLINWYQQKLGQPPKLLIYHASNLETGVPARFSGSGSRTDFTLTIDPVEEDDVAVYYCLQGRKIPRTFGGGTKLEIK
VH: QVQLQQPGAELVKPGASVKLSCKASGYTFTTYWIQWIKQRPGQGLEWIGEIDPSDIFTNYNQKFKGKATLTVDTSSSTAYMQLSSLTSEDSAVYYCARGVYDGYYVGYFDVWGTGTTVTVSS
On to B7, for which the EC50 in experiment [3] turned out to be 1.7 nM; in experiment [1] it was 5.9 nM.

B8: mAb010 (antibody, V domains shown)
VH: QVQLQQPGAELVKPGASVKLSCKASGYTFTTYWIQWIKQRPGQGLEWIGEIDPSDIFTNYNQKFKGKATLTVDTSSSTAYMQLSSLTSEDSAVYYCARGVYDGYYVGYFDVWGTGTTVTVSS
VL: DIVLTQSPASLAMSLGKRATISCRASESVSIMGTNLINWYQQKLGQPPKLLIYHASNLETGVPARFSGSGSRTDFTLTIDPVEEDDVAVYYCLQGRKIPRTFGGGTKLEIK
notes: Mouse hybridoma mAb, protein A purified; also called IM, NKG2D mouse hybridoma cl- 10; NKG2D-cl-10
With B8, the binding result in experiment [4] is listed as “binds”.

B9: IM1249 CD3x5T4x NKG2D-cl-10 (H-L) (protein, part only; not given: anti-CD3 Fab, anti-5T4 scFv, linkers, not shown: another chain or arm of the molecule; small tags and cut ends)
VH: QVQLQQPGAELVKPGASVKLSCKASGYTFTTYWIQWIKQRPGQGLEWIGEIDPSDIFTNYNQKFKGKATLTVDTSSSTAYMQLSSLTSEDSAVYYCARGVYDGYYVGYFDVWGTGTTVTVSS
VL: DIVLTQSPASLAMSLGKRATISCRASESVSIMGTNLINWYQQKLGQPPKLLIYHASNLETGVPARFSGSGSRTDFTLTIDPVEEDDVAVYYCLQGRKIPRTFGGGTKLEIK
For B9, the figures for the concentration for a half-maximal effect (EC50) in experiment [3] and in experiment [1] were 0.7 nM and 5.3 nM, respectively.

B10: IM1246 CD3x5T4x NKG2D-cl-9 (L-H) (protein, part only; not given: anti-CD3 Fab, anti-5T4 scFv, linkers, not shown: another chain or arm of the molecule; small tags and cut ends)
VL: DVLMTQTPLSLPVSLGDQASISCRSSQSIVHTNGNTYLEWYLQKPGQSPKLLIYRVFNRFSGVPDRFSGSGSGTEFTLKISRVEAEDLGVYYCFQGSHVPFTFGAGTKLELK
VH: EVKLLQSGGGLVQPGGSLKLSCAASGIDLSRYWMSWVRRAPGKGLEWIGEINPDSSTINYAPSLKDKFIISRDNAKNTLSLQMRKVRSEDTALYFCIRRRYYGSSYWYFDVWGTGTTVTVSS
Take B10: the EC50 in experiment [1] came out at 15 nM.

B11: mAb009 (antibody, V domains shown)
VH: EVKLLQSGGGLVQPGGSLKLSCAASGIDLSRYWMSWVRRAPGKGLEWIGEINPDSSTINYAPSLKDKFIISRDNAKNTLSLQMRKVRSEDTALYFCIRRRYYGSSYWYFDVWGTGTTVTVSS
VL: DVLMTQTPLSLPVSLGDQASISCRSSQSIVHTNGNTYLEWYLQKPGQSPKLLIYRVFNRFSGVPDRFSGSGSGTEFTLKISRVEAEDLGVYYCFQGSHVPFTFGAGTKLELK
notes: Mouse hybridoma mAb, protein A purified; also called IM, NKG2D mouse hybridoma cl- 9; NKG2D-cl-9
In the case of B11, in experiment [6], the binding result is “binds”.

B12: IM1247 CD3x5T4x NKG2D-cl-9 (H-L) (protein, part only; not given: anti-CD3 Fab, anti-5T4 scFv, linkers, not shown: another chain or arm of the molecule; small tags and cut ends)
VH: EVKLLQSGGGLVQPGGSLKLSCAASGIDLSRYWMSWVRRAPGKGLEWIGEINPDSSTINYAPSLKDKFIISRDNAKNTLSLQMRKVRSEDTALYFCIRRRYYGSSYWYFDVWGTGTTVTVSS
VL: DVLMTQTPLSLPVSLGDQASISCRSSQSIVHTNGNTYLEWYLQKPGQSPKLLIYRVFNRFSGVPDRFSGSGSGTEFTLKISRVEAEDLGVYYCFQGSHVPFTFGAGTKLELK
Regarding B12, the EC50 in experiment [1] turned out to be 30 nM.
